Measurements as given in publication doi:10.1101/2020.10.12.335539.

What was measured:
[1] = molecular target: humanized anti-hCD20 IgG1 (Rituximab) (human); assay: flow cytometry on cells
[2] = molecular target: HCMV-IgG hyperimmunoglobulin preparation (Cytotect) (human); assay: flow cytometry on cells

Substance: CD4-tailed gp68 (gp68-CD4)
- percent reduction of FcγRIII binding to immune complexes [1]: 60%

Substance: HCMV gp68 on the surface of HCMV AD169/pBAC2-infected MRC-5 cells (from UniProt P16739 24-345) (natural protein)
- percent reduction of FcγRIII binding to opsonized infected cells [2]: 60%
